Ends that are not written are not given here.
Tests used:
[1] = molecular target: T1, His-tagged neuropilin-1 b1b2 domain (NRP-1 WT) (UniProt O14786 273-586, limits assumed, FAM (5-(and-6)-carboxyfluorescein) label, amine-reactive dye); assay: ELISA: immobilised peptide (10 µg/well), FAM-labelled NRP-1, fluorescence intensity
T1 construct: domain: b1b2 domain; also called WT NRP-1; wild type NRP-1; not shown: His-tag
T1 sequence (looked up): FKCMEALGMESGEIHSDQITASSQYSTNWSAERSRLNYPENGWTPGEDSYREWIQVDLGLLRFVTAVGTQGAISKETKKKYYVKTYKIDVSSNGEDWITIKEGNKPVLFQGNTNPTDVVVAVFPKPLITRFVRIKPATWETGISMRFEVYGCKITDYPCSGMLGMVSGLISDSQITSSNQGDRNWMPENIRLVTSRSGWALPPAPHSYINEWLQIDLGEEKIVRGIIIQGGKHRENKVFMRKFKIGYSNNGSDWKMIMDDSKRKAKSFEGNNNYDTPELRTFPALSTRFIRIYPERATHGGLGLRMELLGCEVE
Procedure: (§1) In vitro binding of DCN-tCRK and peptides to NRP-1 was analyzed using ELISA analysis. 96-well, black FLUOTRAC™ 600, high binding plates (Greiner Bio-One, Kremsmünster, Austria) were coated with […] of 100 μg/ml DCN-tCRK in PBS at 4° C. overnight. 10 μg/well RPARPAR (SEQ ID NO: 25) and […] (SEQ ID NO: 26) peptides were coated in parallel as a positive and negative control, respectively. BSA was used as an immobilization control. The plates were washed 3 times with phosphate buffered saline (PBS) and blocked for 1 h at 37° C. with 300 μl of blocking solution (1×PBS, 1% BSA, 0.1% Tween-20). His-tagged neuropilin-1 b1b2 domain (NRP-1 WT) and triple mutant NS346A-E348A-T349A neuropilin-1 b1b2 domain (NRP-1 mutant) were expressed and purified at the Protein Production and Analysis Facility at the Sanford Burnham Prebys Medical Discovery Institute (La Jolla, Calif.) as described previously (Teesalu et al., 2009, PNAS 106:16157-16162). The recombinant proteins NRP1 WT, NRP1 mutant, and DCN-tCRK were FAM (5-(and-6)-Carboxyfluorescein, #90024, Biotium Inc, CA, USA) labeled by mixing 1:10 ratio of amine-reactive FAM dye (diluted in DMSO final concentration 0.2%) and protein. […] After adding 100 μl PBS in each well, the plate was immediately read with top read mode using a fluorescence reader (Flex Station II, Molecular Devices; peak excitation=485 nm, peak emission=530 nm, cut off=515).

[2] = molecular target: T2, 6xHistag-DCN-tCRK fusion protein (human, UniProt P07585 31-359, glycosaminoglycan chain (mostly chondroitin sulfate) attached to the DCN core, residue not stated; FAM-labelled in the cell assay only); assay: ELISA: immobilised DCN-tCRK (100 µg/ml coating), FAM-labelled NRP-1 mutant, fluorescence intensity, compared with BSA control
T2 construct: Produced in HEK293F cells; Immobilised unlabelled on the plate in the ELISA; also called tCRK-DCN; FAM-DCN-tCRK
Procedure: as §1

T2 sequence (P07585 other isoform, or with tags, fused parts or gaps): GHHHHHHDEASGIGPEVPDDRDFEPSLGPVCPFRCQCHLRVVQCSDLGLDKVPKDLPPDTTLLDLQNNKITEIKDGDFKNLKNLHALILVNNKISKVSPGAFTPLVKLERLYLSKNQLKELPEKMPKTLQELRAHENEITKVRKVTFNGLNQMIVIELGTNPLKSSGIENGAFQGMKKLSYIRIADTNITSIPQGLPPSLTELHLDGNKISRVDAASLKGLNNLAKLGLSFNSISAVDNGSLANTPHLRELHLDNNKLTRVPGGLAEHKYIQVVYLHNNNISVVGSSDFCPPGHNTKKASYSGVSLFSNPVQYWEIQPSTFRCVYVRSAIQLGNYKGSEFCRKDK

Row | Binder | binding result [1] | binding result [2]
1 | RPARPARA (not fully specified, also called negative peptide) [RPARPARA peptide] | no binding (tested: 20 µg/well FAM-labelled NRP1 WT) | –
2 | triple mutant NS346A-E348A-T349A neuropilin-1 b1b2 domain (NRP-1 mutant) (receptor, UniProt O14786 273-586, looked up, FAM (5-(and-6)-carboxyfluorescein) label, amine-reactive dye, domain: b1b2 domain; Printed as 'NS346A-E348A-T349A'; also called mutant NRP-1; not shown: His-tag) FKCMEALGMESGEIHSDQITASSQYSTNWSAERSRLNYPENGWTPGEDSYREWIQVDLGLLRFVTAVGTQGAIAKAAKKKYYVKTYKIDVSSNGEDWITIKEGNKPVLFQGNTNPTDVVVAVFPKPLITRFVRIKPATWETGISMRFEVYGCKITDYPCSGMLGMVSGLISDSQITSSNQGDRNWMPENIRLVTSRSGWALPPAPHSYINEWLQIDLGEEKIVRGIIIQGGKHRENKVFMRKFKIGYSNNGSDWKMIMDDSKRKAKSFEGNNNYDTPELRTFPALSTRFIRIYPERATHGGLGLRMELLGCEVE | – | no binding (tested: 20 µg/well FAM-labelled NRP1 mutant)
